Reference: the supplement of paper PMC9112550, “Optimization of the antimicrobial peptide Bac7 by deep mutational scanning” (BMC Biology, 2022)

Test system: Escherichia coli TOP10
Test: shrunken log2 fold change of peptide-encoding DNA abundance (4.5 h post-induction vs induction); higher = less antimicrobial activity (less host growth inhibition)
Conditions: time post-induction: 4.5 h; library: site-saturation at positions 5, 18, 19, 20
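Note: peptides expressed intracellularly from a pBAD plasmid library in pooled LB shake-flask culture, induced with 0.3% L-arabinose, DNA abundance read by NGS, three biological replicates, DESeq2 with apeglm shrinkage.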

Row | Sequence | shrunken log2 fold change
1 | RRIRCRPPRLPRPRPRPWCSPRP | -0.321
2 | RRIRNRPPRLPRPRPRPTIKPRP | -0.496
3 | RRIRLRPPRLPRPRPRPMWQPRP | 0.0197
4 | RRIRYRPPRLPRPRPRPEASPRP | -0.0105
5 | RRIRWRPPRLPRPRPRPFNPPRP | -0.389
6 | RRIRIRPPRLPRPRPRPQHYPRP | -1.3
7 | RRIRTRPPRLPRPRPRPPCDPRP | 0.0499
8 | RRIRIRPPRLPRPRPRPHARPRP | 3.76
9 | RRIRSRPPRLPRPRPRPAMCPRP | -0.185
10 | RRIRKRPPRLPRPRPRPMGWPRP | 0.31
11 | RRIRFRPPRLPRPRPRPPTLPRP | -0.0735
12 | RRIRFRPPRLPRPRPRPFMAPRP | -0.417
13 | RRIRNRPPRLPRPRPRPKDNPRP | -0.484
14 | RRIRQRPPRLPRPRPRPMTRPRP | 0.0107
15 | RRIRKRPPRLPRPRPRPRLWPRP | 1.01
16 | RRIRFRPPRLPRPRPRPIHEPRP | -0.169
17 | RRIRARPPRLPRPRPRPCINPRP | -0.353
18 | RRIRQRPPRLPRPRPRPYRDPRP | -0.204
19 | RRIRWRPPRLPRPRPRPVPFPRP | 0.122
20 | RRIRIRPPRLPRPRPRPQFVPRP | -0.229
21 | RRIRNRPPRLPRPRPRPRKDPRP | 0.00266
22 | RRIRLRPPRLPRPRPRPFDKPRP | -0.151
23 | RRIRYRPPRLPRPRPRPTQCPRP | -0.0863
24 | RRIRWRPPRLPRPRPRPWAKPRP | 0.279
25 | RRIRRRPPRLPRPRPRPIPLPRP | 0.194

Row | Sequence | shrunken log2 fold change
26 | RRIRTRPPRLPRPRPRPETLPRP | 0.0577
27 | RRIRNRPPRLPRPRPRPIVHPRP | -0.205
28 | RRIRYRPPRLPRPRPRPTPSPRP | 0.421
29 | RRIRIRPPRLPRPRPRPREPPRP | 0.183
30 | RRIRIRPPRLPRPRPRPQCEPRP | -0.0436
31 | RRIRARPPRLPRPRPRPYWMPRP | -0.275
32 | RRIRDRPPRLPRPRPRPIWVPRP | -0.0618
33 | RRIRCRPPRLPRPRPRPDWNPRP | -0.523
34 | RRIRLRPPRLPRPRPRPTGQPRP | 0.107
35 | RRIRTRPPRLPRPRPRPCEYPRP | -0.0254
36 | RRIRPRPPRLPRPRPRPTYMPRP | -0.0483
37 | RRIRGRPPRLPRPRPRPTHKPRP | 0.854
38 | RRIRGRPPRLPRPRPRPQPPPRP | 0.998
39 | RRIRFRPPRLPRPRPRPIRRPRP | 0.0321
40 | RRIRGRPPRLPRPRPRPMATPRP | 1.37
41 | RRIRFRPPRLPRPRPRPQGFPRP | -0.313
42 | RRIRRRPPRLPRPRPRPNPDPRP | 0.314
43 | RRIRNRPPRLPRPRPRPPQTPRP | 0.424
44 | RRIRSRPPRLPRPRPRPSQVPRP | -0.323
45 | RRIRLRPPRLPRPRPRPHPGPRP | 0.242
46 | RRIRRRPPRLPRPRPRPSILPRP | 0.197
47 | RRIRIRPPRLPRPRPRPEACPRP | -0.064
48 | RRIRCRPPRLPRPRPRPSVQPRP | -0.579
49 | RRIRDRPPRLPRPRPRPAKYPRP | -0.315
50 | RRIRIRPPRLPRPRPRPPGEPRP | 0.0604

Row | Sequence | shrunken log2 fold change
51 | RRIRIRPPRLPRPRPRPHHGPRP | -0.0784
52 | RRIRWRPPRLPRPRPRPMQIPRP | 0.0922
53 | RRIRRRPPRLPRPRPRPPTHPRP | 0.622
54 | RRIRVRPPRLPRPRPRPSFGPRP | -0.463
55 | RRIRLRPPRLPRPRPRPIGKPRP | -0.335
56 | RRIRWRPPRLPRPRPRPHNQPRP | -0.445
57 | RRIRLRPPRLPRPRPRPENTPRP | -0.235
58 | RRIRKRPPRLPRPRPRPDSSPRP | 0.0149
59 | RRIRNRPPRLPRPRPRPFKFPRP | -0.423
60 | RRIRLRPPRLPRPRPRPCLQPRP | -0.207
61 | RRIRVRPPRLPRPRPRPYEKPRP | -0.293
62 | RRIRARPPRLPRPRPRPNQKPRP | 0.0427
63 | RRIRARPPRLPRPRPRPLLPPRP | 0.419
64 | RRIRVRPPRLPRPRPRPGIDPRP | -0.143
65 | RRIRKRPPRLPRPRPRPSTLPRP | 0.252
66 | RRIRDRPPRLPRPRPRPVNFPRP | 0.0142
67 | RRIRLRPPRLPRPRPRPHGCPRP | -0.0225
68 | RRIRPRPPRLPRPRPRPSSTPRP | -0.315
69 | RRIRYRPPRLPRPRPRPTHYPRP | -0.867
70 | RRIRNRPPRLPRPRPRPVHGPRP | -0.0581
71 | RRIRFRPPRLPRPRPRPEHHPRP | -0.306
72 | RRIRERPPRLPRPRPRPSAHPRP | 0.131
73 | RRIRQRPPRLPRPRPRPPPTPRP | 0.913
74 | RRIRNRPPRLPRPRPRPRLSPRP | 0.0939
75 | RRIRSRPPRLPRPRPRPYWEPRP | -0.0147

Row | Sequence | shrunken log2 fold change
76 | RRIRYRPPRLPRPRPRPRYHPRP | -0.922
77 | RRIRLRPPRLPRPRPRPRMGPRP | 0.135
78 | RRIRNRPPRLPRPRPRPYYDPRP | -0.0248
79 | RRIRLRPPRLPRPRPRPVARPRP | 0.551
80 | RRIRQRPPRLPRPRPRPAKDPRP | 0.0171
81 | RRIRPRPPRLPRPRPRPTERPRP | 0.649
82 | RRIRIRPPRLPRPRPRPRIAPRP | -0.0281
83 | RRIRERPPRLPRPRPRPWTAPRP | -0.478
84 | RRIRVRPPRLPRPRPRPSPMPRP | -0.261
85 | RRIRRRPPRLPRPRPRPGHSPRP | -0.0814
86 | RRIRKRPPRLPRPRPRPAIWPRP | 0.463
87 | RRIRPRPPRLPRPRPRPMFVPRP | -0.254
88 | RRIRYRPPRLPRPRPRPLLVPRP | -0.692
89 | RRIRWRPPRLPRPRPRPHHIPRP | -0.612
90 | RRIRERPPRLPRPRPRPYKRPRP | -0.905
91 | RRIRDRPPRLPRPRPRPNLKPRP | 0.114
92 | RRIRHRPPRLPRPRPRPRMMPRP | -0.0987
93 | RRIRMRPPRLPRPRPRPCWSPRP | 0.349
94 | RRIRLRPPRLPRPRPRPLVIPRP | -0.33
95 | RRIRVRPPRLPRPRPRPEMDPRP | 0.111
96 | RRIRGRPPRLPRPRPRPWFDPRP | -0.0883
97 | RRIRKRPPRLPRPRPRPGEYPRP | 0.156
98 | RRIRTRPPRLPRPRPRPEMEPRP | 0.0702
99 | RRIRMRPPRLPRPRPRPHGWPRP | 0.839
100 | RRIRTRPPRLPRPRPRPSGWPRP | -0.00504

Row | Sequence | shrunken log2 fold change
101 | RRIRARPPRLPRPRPRPTCYPRP | 0.128
102 | RRIRMRPPRLPRPRPRPDVYPRP | -0.119
103 | RRIRMRPPRLPRPRPRPTKGPRP | 0.258
104 | RRIRRRPPRLPRPRPRPIEMPRP | 0.0754
105 | RRIRYRPPRLPRPRPRPVCPPRP | 0.101
106 | RRIRSRPPRLPRPRPRPQPQPRP | 0.47
107 | RRIRTRPPRLPRPRPRPQGLPRP | -0.0814
108 | RRIRFRPPRLPRPRPRPGEFPRP | -0.239
109 | RRIRYRPPRLPRPRPRPWIKPRP | 0.106
110 | RRIRPRPPRLPRPRPRPAEMPRP | 0.189
111 | RRIRFRPPRLPRPRPRPPIIPRP | 0.92
112 | RRIRHRPPRLPRPRPRPQTGPRP | -0.169
113 | RRIRERPPRLPRPRPRPNDDPRP | -0.121
114 | RRIRARPPRLPRPRPRPIEEPRP | -0.0473
115 | RRIRPRPPRLPRPRPRPAASPRP | -0.0885
116 | RRIRGRPPRLPRPRPRPIPAPRP | 0.913
117 | RRIRHRPPRLPRPRPRPYWGPRP | -0.0562
118 | RRIRERPPRLPRPRPRPNWLPRP | -0.00723
119 | RRIRIRPPRLPRPRPRPVNRPRP | -0.195
120 | RRIRSRPPRLPRPRPRPPNLPRP | -0.148
121 | RRIRGRPPRLPRPRPRPTNAPRP | 0.923
122 | RRIRARPPRLPRPRPRPTEWPRP | 0.483
123 | RRIRHRPPRLPRPRPRPKYCPRP | -0.000924
124 | RRIRHRPPRLPRPRPRPQFGPRP | -0.184
125 | RRIRTRPPRLPRPRPRPLCFPRP | -0.326
